# T1: hCD40L (human, UniProt P29965 113-261)
# T1 sequence (looked up): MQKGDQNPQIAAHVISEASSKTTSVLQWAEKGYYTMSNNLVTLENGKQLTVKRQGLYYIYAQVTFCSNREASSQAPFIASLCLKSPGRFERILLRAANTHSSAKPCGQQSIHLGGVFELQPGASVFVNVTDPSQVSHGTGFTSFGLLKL
# Biological target: T1, hCD40L
# Test: competition ELISA: fixed concentration of OX40L01E07 pre-incubated with a concentration series of the competitor, then added to biotinylated hOX40L captured on neutravidin; OD450nm
# Protocol: The binding of OX40L blocking Nanobodies to other TNF family members was tested in a competition ELISA.
# Detection was done using sTMB (SDT Reagents, Baesweiler, Germany), the reaction was stopped with 1M HCl and absorbance was determined at 450 nm.
binder,measurement,value
"OX40L01E07 (VHH, monovalent Nanobody from E. coli; not shown: C-terminal c-myc and His6 tag) VHH: EVQLVESGGGLVQAGGSLRLSCAASGRTFSSIYAKGWFRQAPGKEREFVAAISRSGRSTSYADSVKGRFTISRDNAKNTVYLQMNSLKPEDTAVYYCAAVGGATTVTASEWDYWGLGTQVTVSS",binding result,no binding

# Reference: US20150218281A1 (Ablynx, published 2015)
